50 sequences from the domain aggregation screens of Martell et al. (2025) can be followed below.

Where only a bound is given, the exact number is not on record here.

The nature of this data set: soluble fraction after stress (log2 fold change); higher = more stays soluble; pooled small domains, quantitative proteomics. Particulars: stress: 50 degC. In outline: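 Pooled custom libraries of small protein domains were each held under stress at 50°C. The read-out, high-throughput quantitative proteomics, tracked how much of each protein stayed soluble. This is reported as a base-two log fold change used to indicate aggregation propensity. Higher values mean more protein remains in solution.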
Consider “HMDRIISTPMPGRVVKIPVTEGEPVAKGATVITISAMKMESEYKSPIDGIVKKIHVSEGDNINANQPLIEI”, for which the “soluble fraction (log2)” value is -0.178. For the sequence “HMETIHEMVNRLSSEGFIKNEDGIWYLRDRRGDGTKWLKNPFFESTGEKDAFALIDHLKVNDELLSKLRK”, the “soluble fraction (log2)” value is -0.3. Turning to “HMGMTAPIPGVVLKVSVLPGQKVERGDELLTIEAMKMFNVMRSPSSGTIATVHIKDGDRVVQGQPLVTFA”, the “soluble fraction (log2)” value is 0.025.

As to “HMRTLSAGVAGRLRADILNGLLEPGRRLGMAELTERYGAGMSPVREALSRLVGEGLVQSEGQRGFRVA”, the “soluble fraction (log2)” value was -0.0944.

Take “HMSNPPIRIGKKALHELLTTWLSLLSRDGVAYLVVQKNLGADSLTAWLRDQGFPSEKIASKKGFRIIEVH”: the “soluble fraction (log2)” value is -0.245. As to “HMPSSAYGPYKNVFLSNSELTKLKNELPTSWEHYINRLSEYMRSTGRQYQSHAATILRWAATDRNS”, the “soluble fraction (log2)” value is -0.139. As for “HMREVGVPNLRGLTAEEAQIVLSNAGLNLRTEPIRRVHETITVGRIAEQDPMPDLTIRSQRSVTTWLSSGP”, the “soluble fraction (log2)” value amounted to 0.317. As for “HMYFNTADLKADSIHYGSTEQSVIKILGEPEYRETFVDNNVSYELFSYKGNLLLSFVENSLVSL”, the “soluble fraction (log2)” value was 0.0896. Regarding “HMTVSLTDVPFVPEILDRLERPELDVLLAILNGATNTFDLAAKTGRSRDELDEVLDRLTTLGLIER”, the “soluble fraction (log2)” value is -0.214. “HMEIITIVSDINGKRIDAWLSEKLENYSRSFIQKLIQNENVKVNNNIVKANYKLKNGDAVAVSIPEPV”: the “soluble fraction (log2)” value was no less than 0.62.

Take “HMTTLAADFNSDGRVDIGDLSILAGNWGKSRTNEVDFNKYGDADYNGRIDIIDLSILATQFGQTDNSN”: the “soluble fraction (log2)” value is -0.0889. In the case of “HMAAHWANFLEALRAGRARRVLVARGVEGWLLKELERLGAPYTLVPRIELDTLLRTTHHQGIAAEVE”, the “soluble fraction (log2)” value is -0.692.

As for “HMTFGENLIRLRRQQGLSQEQLGMRIGVSRQTVSKWELNDTTPEMEKLIALADLFGLSLDELTGRV”, the “soluble fraction (log2)” value is -0.115. Consider “HMNSLQNNLKQARTRVGLTQGVLASQAGISRQAYSTLESGSANPSTEVALRLAQALQERVELLFYLPER”, for which the “soluble fraction (log2)” value was -0.705.

Take “HMAEKNALWEEDAVYAADSSALARDGYDAIVRTDKGGKKGYLVVGTGGRERFMPLQTLVMLGYLKK”: the “soluble fraction (log2)” value is -0.065. As for “HMNTNDFTIGTRVRTTKKGNGSSDGTSNTARSGIEGTITRIIPEAKYPYLVSTTVPMGWYKKDALEK”, the figure is 0.0875.

Turning to “HMQKLKINKYKDPKGEIRYYIASTIRNGNKSSTHNLLSLGKHSDLLKEHSDVEAYLKERLNEAMESGI”, the “soluble fraction (log2)” value was -0.145. With “HMSNEVSYSDFVRSVESDEVNAVTLDGEQIRFVGNDGQTYSVIKPADAQITQLLIDNNVTVRAEQQ”, the “soluble fraction (log2)” value came out at 0.0224. For the sequence “HMWNPVLVVRGDFPKDLATTLLKMIFAQKEALNPHILFQNLLRTDNITFRESYPYHSASKTMFRF”, the “soluble fraction (log2)” value is -0.148. Regarding “HMSWEDSLLKQAREIIDMYPQKRSAVGPLLHLAQSKDGYISDDSISVISKLVGITEVQLKSVSTFYSMYK”, the “soluble fraction (log2)” value is -1.59. As for “HMKKTVTDSVELLTFLKDIFTNTSTNKLRKMLTTGRVTVNNIVIHKAKHILVQNDVVEIGDK”, the figure is -1.86; as for “HMNPYQDSILLWKSFDTPLTNEDFMGLSKEELRIARNEIYAAYGRIFTSQDLIDYFNSKPWYQGTTPA”, -0.202. Turning to “HMGFEALRSRHRITAREMEVLQHMLAGRSNAEIGHTLGLSERTVKTHITSIFNKLGVDSRAQLGYMLK”, the “soluble fraction (log2)” value was -0.498. As for “HMAEVDDESIKLYDGGYQSNTTKSRLNALLSEFGYDTEHVFQKQFEWFISIFDLTEKAMRTVPFSNGMRL”, the “soluble fraction (log2)” value was -0.0834. The same measure for “HMSGSFDVTLDYLNSLRNLYPAIDVEQEFRKMYAWLDSNPKNRKTERGIKRFITGWLGRAQDKAP”: -1.12.

Take “HMNESADMPDVVNMSLEAAKSQLEGMGLKVKVENVEDDSVEENHVIKTSPVSGEKVKLGTTVTLTVSKGR”: the “soluble fraction (log2)” value was -0.0231. As for “HMKKYFPPKSRFNPNKYLLKDWMALGLSEKQSQSILNFIQRGIYSNSALEKIYVMPEEVFTLIKDSTYYEE”, the figure is -1.34. As to “HMDADGEPIKLDQIGISHLSFTVADVKSLGEELVAKGVKLAAPMEAFTSPEGRISSIFVYDPDGILLQFDD”, the “soluble fraction (log2)” value was -0.104. For the sequence “HMDFLKSVDLSKYSKVESLILSHLSKGDFDIDDFIRSFSLGTDEVTRAIVSLEIEGIILRKGNRIFRKKS”, the “soluble fraction (log2)” value was -0.0402. For “HMRGPPQVLVDVELEDGRVGQIGVRNGDDATELAETFVRAFRLEQSFVGRLANVIQGKIRELLHSQ”, the “soluble fraction (log2)” value is -0.889. Turning to “HMDSVEMFSPILGMNANMDLDTLTQTRDKLLEKYKDDEQLIGLVNKTYDYFNEILLKQFLIEELEKNE”, the “soluble fraction (log2)” value is -0.153. On to “HMYALGIPVSQYRRTTQVLGHESSYPIAYEDEKQDDDFYLFKFPNIDEYDFKKIVILLKQNGITT”, for which the “soluble fraction (log2)” value is -1.61.

As to “HMQLTPAQHAILAHALEHSDGKIVWFPDNIKGGARKKVLDGLLNRALITTDGTDWFVAAEGYDAMGR”, the “soluble fraction (log2)” value is -0.227. With “HMDRFVLQLSKRYYDSSIEGVRKALAAFPVKTELLDQDRGGRPFYHENGKENEPVFRIMFHPEEGM”, the “soluble fraction (log2)” value is -0.542.

As for “HMQPAGEGAILRYLSSGAVKGIGPVMAREIVRRFGTDTFRVMEQEPEKLLKVKGITEQRLQTIMESYQD”, the “soluble fraction (log2)” value is -0.0857. For the sequence “HMRPYAYGTGRRKSSTARVHLIPNGSGSITINGRTLDEYFGLETLKLIVRQPLAATETAEKFDVEATVV”, the “soluble fraction (log2)” value was -0.415. For “HMKTMTTIRKGSRGDTVATLQRKLNLIADGIFGPITDEAVRDFQKSHGLAVDGIVGPKTWAALGVGS”, the “soluble fraction (log2)” value amounted to 0.0423. For “HMYNPAYDAEIKVILELARHGYWEEARERADELLKAAPDDTGVKRIQTWVRQQEQRMREQAIEDSIRA”, the “soluble fraction (log2)” value is -0.0287. In the case of “HMAPAILTVQVKPDKIREIIGPGGKMIRMIQSETNTRVEVDDSGLVKIAAVSKEEGEAALKMVSDITME”, the “soluble fraction (log2)” value is 0.134.

For the sequence “HMEQPLSLKLANNAFSRFWGNANPAEKDTQPNNSDIAKWVIEQSGGKITQTMADKIAQIIRPEWAA”, the “soluble fraction (log2)” value came out at 0.184. On to “HMPYSPTPGSAPARLIAHLQEHGDSVNRTAIAELLQVDRKNVHNYLARAVTHGLLLRHGGGAYSLP”, for which the “soluble fraction (log2)” value is 0.086. For “HMKIKLQATEQQRKTLDELYVQLKKLEPTSKEDLSLLYRLENPHLVSKQEAQGLISIAIGRVGSLAIEQQ”, the “soluble fraction (log2)” value is -0.27. The same measure for “HMATPRLAIVPQSAAGRRLDAVLAELFPEYSRSRLSAWIKTGDVMVDGAAPRGRDPVRGGEEITLTAVQ”: -0.033; for “HMTPQDYEYLRKLLKDQSGLDLSVDKQYLLESRLVPLSRKAGLAGIPELVQKMKAGSASLTAQVVEAMTT”: 0.00429; for “HMTELSLSEQAYQQLRRMIVRLDFAPGDVLREEALQEALGMSRTPIREALQRLAREHFVTVIPRRGMFVS”: -2.28. For “HMTPNRDDEHLQSLRDYYASNRRIPSLQRIAALLGFSSRSAAVKLMGRLADEGFVERTVDDDAWIPGSRFF”, the “soluble fraction (log2)” value is -0.808. As to “HMEDHMVVFGKGGRITRLPDKATVLEYLDAANFFASRSSVVKVNGKLASLDQTLRDGDSIEIVD”, the “soluble fraction (log2)” value is -0.183. For “HMTNTDALINRAAKVVEEINPDKNTGRVSIDGDLWRAKSSSGELIEQNKQVIVISIESTIVTVKI”, the “soluble fraction (log2)” value was -0.343. The same measure for “HMEVPFRNAAIFKTRSGDYAIRASYDGVDLGIKPIEKSTARTYFQLTDVKDKESFLNMTARNQYESEIAGI”: -0.00166; for “HMSLPNNLIEQLQDPEPKARRRAVRRLAATRDPSAIPLLRNVYLQDGDDRVRDAAEAALVQFRAMQHN”: 0.0586.
